Experimental data taken from patent US20100015130A1.

What was measured:
[1] = biological target: GSK3β as used in the surface plasmon resonance (SPR) binding assays (Homo sapiens (Human)) (UniProt P49841); experiment: SPR, stoichiometry inferred from the response
[2] = biological target: GSK3β as used in the surface plasmon resonance (SPR) binding assays (Homo sapiens (Human)) (UniProt P49841); experiment: SPR, peptide at 25 µM on GSK3β

Chain of GSK3β as used in the surface plasmon resonance (SPR) binding assays (Homo sapiens (Human)) (P49841 whole entry, form in doubt): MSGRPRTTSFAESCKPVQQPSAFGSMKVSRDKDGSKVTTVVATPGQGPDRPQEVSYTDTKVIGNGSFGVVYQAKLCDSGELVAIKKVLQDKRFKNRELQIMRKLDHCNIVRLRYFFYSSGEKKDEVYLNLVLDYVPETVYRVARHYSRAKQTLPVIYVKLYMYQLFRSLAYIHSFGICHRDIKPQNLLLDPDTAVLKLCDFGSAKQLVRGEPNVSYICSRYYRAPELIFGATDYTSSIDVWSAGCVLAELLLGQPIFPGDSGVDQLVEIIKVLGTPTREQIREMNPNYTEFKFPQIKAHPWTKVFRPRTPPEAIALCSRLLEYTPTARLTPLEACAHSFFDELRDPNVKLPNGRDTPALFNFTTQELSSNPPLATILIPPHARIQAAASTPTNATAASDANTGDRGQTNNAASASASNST

Substance “L803-MTS (commercial GSK3β peptide inhibitor, Calbiochem)” has a peptide-protein ratio (peptide:protein) [1] of 2 and a percent theoretical maximal response [2] of 259%.
